{"source": "paper PMC5397143", "biological_target": "RctB, wild-type full-length (residues 1–658) (Vibrio cholerae)", "experiment": "native MS"}
{"substance": "RctB, wild-type full-length (residues 1–658) (natural protein)", "values": [{"measurement": "stoichiometry N", "result": 2}]}
